Results reported in patent publication US20230272055A1, “ANTI-MUTANT CALRETICULIN (CALR) ANTIBODIES AND USES THEREOF” (Incyte Corporation, priority 2021, published 2023).

System: BaF3 cells expressing MPL/mutCALR Type 1
Test: Example 16 inhibition of cell proliferation, CellTiter-Glo 72 hours
Assay type: cell-based
Description: The ability of the five antibodies shown here to inhibit cell proliferation was tested. Inhibition of cell proliferation was assessed using engineered BaF3 cells expressing MPL/mutCALR Type 1. Cells were plated at 5,000 cells per well in RPMI 1640+2% FBS, antibodies were added and incubated for 72 hours, followed by assessment of cell viability using the CellTiter-Glo Luminescent Cell Viability Assay (Promega, Madison, Wis.) and Top Count (Perkin Elmer, Boston, Mass.) or Pherastar (BMG Labtech, Ortenberg, Germany) for luminescence quantification. […] The data shown in FIGS. 21A and 21B were compiled from different experiments.

B1: AB4: anti-mutCALR antibody including VH and VL regions of antibody 8B2-H6 from WO2016087514 fused to human constant regions (antibody)
heavy: EVQLKQSGPELVKTGASVKISCKASGYSFTGYYIHWVKQSHGKSLEWIGYISCYNGASSYNQKFKGKATFTVDTSSSTAYMQFNSLTSGDSAVYYCASSMDYWGQGTSVTVSSASTKGPSVFPLAPSKSTSGGTAALGCLVKDYFPEPVTVSWNSGALTSGVHTFPAVLQSSGLYSLSSVVTVPSSSLGTQTYICNVNHKPSNTKVDKKVEPKSCDKTHTCPPCPAPELLGGPSVFLFPPKPKDTLMISRTPEVCVVVDVSHEDPEVKFNWYVDGVEVHNAKTKPREEQYNSTYRVVSVLTVLHQDWLNGKEYKCKVSNKALPAPIEKTISKAKGQPREPQVYTLPPSREEMTKNQVSLTCLVKGFYPSDIAVEWESNGQPNNYKTTPPVLDSDGSFFLYSKLTVDKSRWQQGNVFSCSVMHEALHNHYTQKSLSLSPG
light: DVVMTQTPLTLSVTIGQPASISCKSSQSLLDSDGKTYLNWLLQRPGQSPKRLIYLVSKLDSGVPDRFTGSGSGTDFTLKISRVEAEDLGVYHCWQGTHFPYTFGGGTKLEIKRTVAAPSVFIFPPSDQLKSGTASVVCLLNNFYPREAKVQWKVDNALQSGNSQESVTEQDSKDSTYSLSSTLTLSKADYEKHKVYACEVTHQGLSSPVTKSFNRGEC
Question: Which results are given for B1?
Answer: inhibition of cell proliferation (72 hours, FIG. 21B, Table 16): no functional activity; IC50 for anti-mutCALR antibody mediated inhibition of cell proliferation (BaF3 cells expressing MPL/mutCALR Type 1, 72 hours, CellTiter-Glo): >60 µg/mL
